Paper PMC2688836 (2010)
Residue numbers refer to the chain shown, from its start. Names and notes keep the numbering of the source. Values belong to the binder of their own block, whether it stands above or below them.

Biological target: C-CFTR 1411-1480 (Homo sapiens, UniProt P13569)
Assay: SPR

Chain of C-CFTR 1411-1480 (P13569 1411-1480): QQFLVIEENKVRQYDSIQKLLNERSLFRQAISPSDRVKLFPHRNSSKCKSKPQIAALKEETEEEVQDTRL

B1: NHERF1 PDZ2-CT E353A 150-358 (protein)
chain: LRPRLCTMKKGPSGYGFNLHSDKSKPGQFIRSVDPDSPAEASGLRAQDRIVEVNGVCMEGKQHGDVVSAIRAGGDETKLLVVDRETDEFFKKCRVIPSQEHLNGPLPVPFTNGEIQKENSREALAEAALESPRPALVRSASSDTSEELNSQDSPPKQDSTAPSSTSSSDPILDFNISLAMAKERAHQKRSSKRAPQMDWSKKNALFSNL
- Kd: 2500 nM

B4: NHERF1 PDZ2-CT 150-358 (protein)
chain: B1 chain with A204E
- Kd: 2000 nM

Next, values leading:

- Kd: 480 nM
B2: NHERF1 PDZ2-CT E353P 150-358 (protein)
chain: B1 chain with A204P

- Kd: 1600 nM
B3: NHERF1 PDZ2-CT L358D 150-358 (protein)
chain: B1 chain with A204E, L209D
